Source: publication PMC4811514, “MULTIMERIN2 binds VEGF-A primarily via the carbohydrate chains exerting an angiostatic function and impairing tumor growth” (Oncotarget, 2015)
One block for each molecule: values may come before it.

Legend:
[1] = biological target: T1, MULTIMERIN2 (UniProt Q9H8L6 23-949, glycosylated (carbohydrate chains)); experiment: SPR; Biacore X100, CM5 chip; MMRN2 immobilised by amine coupling (3150 RU); cytokines in HBS-EP buffer (150 mM NaCl), 30 μL/min, 60 seconds of contact
T1 construct: MULTIMERIN2 (MMRN2), the whole recombinant His-tagged molecule; also called MMRN2; the whole molecule; source: 293-EBNA cells, purified from serum-free medium (Ni-NTA resin)
T1 sequence (looked up): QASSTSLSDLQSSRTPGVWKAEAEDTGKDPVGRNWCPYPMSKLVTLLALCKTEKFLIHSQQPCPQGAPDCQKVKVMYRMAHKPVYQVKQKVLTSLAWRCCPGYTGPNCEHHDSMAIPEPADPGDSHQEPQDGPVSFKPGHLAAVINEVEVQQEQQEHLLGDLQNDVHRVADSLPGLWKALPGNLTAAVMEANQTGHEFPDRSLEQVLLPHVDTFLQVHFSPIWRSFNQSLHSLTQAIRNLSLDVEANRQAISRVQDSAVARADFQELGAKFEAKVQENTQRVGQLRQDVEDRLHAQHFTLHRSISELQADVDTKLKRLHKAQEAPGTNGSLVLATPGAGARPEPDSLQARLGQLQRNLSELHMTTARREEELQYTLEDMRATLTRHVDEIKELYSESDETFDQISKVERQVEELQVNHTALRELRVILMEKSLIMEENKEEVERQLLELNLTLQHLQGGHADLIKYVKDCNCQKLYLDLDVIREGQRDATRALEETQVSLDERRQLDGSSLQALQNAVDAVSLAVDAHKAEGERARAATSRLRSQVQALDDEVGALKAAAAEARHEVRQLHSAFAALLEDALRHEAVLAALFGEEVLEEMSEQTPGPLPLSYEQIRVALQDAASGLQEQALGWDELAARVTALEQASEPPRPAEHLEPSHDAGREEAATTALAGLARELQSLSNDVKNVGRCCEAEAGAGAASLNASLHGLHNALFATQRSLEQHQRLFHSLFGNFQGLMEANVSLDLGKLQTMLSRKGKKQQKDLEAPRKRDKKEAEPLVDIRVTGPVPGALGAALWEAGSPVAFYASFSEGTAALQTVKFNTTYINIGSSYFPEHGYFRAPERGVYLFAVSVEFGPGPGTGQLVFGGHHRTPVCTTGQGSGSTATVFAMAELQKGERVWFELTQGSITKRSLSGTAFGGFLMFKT

[2] = biological target: MMRN2 Δ2 deletion mutant (UniProt Q9H8L6); experiment: SPR; Biacore X100, CM5 chip; Δ2 fragment immobilised by amine coupling (1770 RU); VEGF-A165 in HBS-EP buffer, 30 μL/min, 60 seconds of contact
[3] = biological target: T1, MULTIMERIN2; experiment: SPR; Biacore X100, CM5 chip; MMRN2 immobilised by amine coupling; NaCl concentration of 300 mM instead of 150 mM

Kd [1]: 560 nM
Molecule: PlGF-1 (from UniProt P49763-2 19-149) (ligand)

Kd [2]: 430 nM
Molecule: VEGF-A165 (ligand)

Kd [1]: 750 nM
Molecule: VEGF-C (from UniProt P49767 112-227) (ligand)

Kd [3]: 3 nM
Molecule: VEGF-A189 (ligand)

Kd [1]: 200 nM
Molecule: VEGF-A121 (ligand)

Kd [3]: 27 nM
Molecule: VEGF-A145 (ligand)

Kd ([1]; both partners purified): 640 nM
B1: VEGF-D (ligand, UniProt O43915 89-205, looked up)
chain: FAATFYDIETLKVIDEEWQRTQCSPRETCVEVASELGKSTNTFFKPPCVNVFRCGGCCNEESLICMNTSTSYISKQLFEISVPLTSVPELVPVKVANHTGCKCLPTAPRHPYSIIRR
notes: vascular endothelial growth factor D; Commercial VEGF-D is usually the processed VEGF homology domain, not the whole precursor; source: bought: Peprotech
